Columns and labels:
Assay in all cases: holdup assay
Set-up in all cases: key: below the threshold = too weak to quantify, mostly under pKd 3.1 to 4
Details in all cases: plain residues with an end cap or a label only (N-terminal biotin on a linker: ttds)
[1] = molecular target: T1, PARD6G, Q9BYG4
T1 sequence (Q9BYG4 153-261, limits assumed, looked up): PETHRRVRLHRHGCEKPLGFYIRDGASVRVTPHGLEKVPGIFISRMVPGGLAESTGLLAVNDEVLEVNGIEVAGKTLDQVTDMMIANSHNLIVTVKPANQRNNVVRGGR

[2] = molecular target: MAGI3_3, Q5TCQ9
[3] = molecular target: T2, PDZD2_4, O15018
T2 sequence (O15018 723-823, limits assumed, looked up): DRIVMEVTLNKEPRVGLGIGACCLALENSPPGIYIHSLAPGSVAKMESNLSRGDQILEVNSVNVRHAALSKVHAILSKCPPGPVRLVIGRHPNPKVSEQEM

[4] = molecular target: CARD14, Q9BXL6
[5] = molecular target: Q13368
[6] = molecular target: LMO7, Q8WWI1
[7] = molecular target: CNKSR3, Q6P9H4
[8] = molecular target: T3, PDLIM3, Q53GG5
T3 sequence (Q53GG5 1-94, limits assumed, looked up): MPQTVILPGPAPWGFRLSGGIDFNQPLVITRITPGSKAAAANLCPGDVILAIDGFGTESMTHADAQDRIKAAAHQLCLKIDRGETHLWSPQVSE

[9] = molecular target: TJP1_1, Q07157
[10] = molecular target: T4, SHANK2, Q9UPX8
T4 sequence (Q9UPX8 621-730, limits assumed, looked up): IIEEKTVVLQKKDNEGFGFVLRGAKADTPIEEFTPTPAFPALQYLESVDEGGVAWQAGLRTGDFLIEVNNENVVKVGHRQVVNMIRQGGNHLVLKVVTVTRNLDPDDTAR

[11] = molecular target: T5, SHROOM4, Q9ULL8
T5 sequence (Q9ULL8 5-102, limits assumed, looked up): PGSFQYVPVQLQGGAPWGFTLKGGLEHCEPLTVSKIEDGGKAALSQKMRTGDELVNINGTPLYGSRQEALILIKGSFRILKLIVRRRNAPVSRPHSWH

[12] = molecular target: T6, PDZD2_3, O15018
T6 sequence (O15018 581-682, limits assumed, looked up): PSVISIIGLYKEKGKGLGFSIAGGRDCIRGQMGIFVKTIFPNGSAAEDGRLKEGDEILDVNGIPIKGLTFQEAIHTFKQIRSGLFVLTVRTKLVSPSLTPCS

[13] = molecular target: T7, LNX2_4, Q8N448
T7 sequence (Q8N448 595-690, limits assumed, looked up): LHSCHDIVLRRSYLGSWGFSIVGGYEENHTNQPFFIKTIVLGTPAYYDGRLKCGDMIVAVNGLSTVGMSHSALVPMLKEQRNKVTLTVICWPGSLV

[14] = molecular target: PDZRN4_2, Q6ZMN7
[15] = molecular target: PREX1_1, Q8TCU6
[16] = molecular target: LIMK1, P53667
[17] = molecular target: T8, NHERF1_1, O14745
T8 sequence (O14745 9-104, limits assumed, looked up): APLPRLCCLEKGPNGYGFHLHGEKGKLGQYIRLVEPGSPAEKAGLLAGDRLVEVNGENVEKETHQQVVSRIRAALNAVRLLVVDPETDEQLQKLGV

[18] = molecular target: Q12923
[19] = molecular target: T9, MPDZ_6, O75970
T9 sequence (O75970 1003-1099, limits assumed, looked up): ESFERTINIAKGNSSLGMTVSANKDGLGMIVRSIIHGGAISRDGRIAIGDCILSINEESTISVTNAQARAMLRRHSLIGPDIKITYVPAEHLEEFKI

[20] = molecular target: O00560
[21] = molecular target: T10, SYNPO2L, Q9H987
T10 sequence (Q9H987 1-98, limits assumed, looked up): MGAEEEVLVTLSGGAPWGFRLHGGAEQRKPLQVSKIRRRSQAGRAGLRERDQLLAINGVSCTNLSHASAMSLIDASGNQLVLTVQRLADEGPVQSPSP

[22] = molecular target: MAGI3_6, Q5TCQ9
[23] = molecular target: MAGI1_4, Q96QZ7
[24] = molecular target: T11, MPDZ_3, O75970
T11 sequence (O75970 372-473, limits assumed, looked up): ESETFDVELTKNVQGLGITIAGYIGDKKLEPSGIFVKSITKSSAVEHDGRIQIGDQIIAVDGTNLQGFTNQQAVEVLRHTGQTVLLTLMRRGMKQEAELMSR

[25] = molecular target: MAST3, O60307
[26] = molecular target: T12, MPDZ_11, O75970
T12 sequence (O75970 1720-1817, limits assumed, looked up): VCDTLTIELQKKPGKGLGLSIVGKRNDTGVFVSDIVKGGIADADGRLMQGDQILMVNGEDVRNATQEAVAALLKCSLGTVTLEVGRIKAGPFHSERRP

LMO7, Q8WWI1, sequence (Q8WWI1 1037-1138): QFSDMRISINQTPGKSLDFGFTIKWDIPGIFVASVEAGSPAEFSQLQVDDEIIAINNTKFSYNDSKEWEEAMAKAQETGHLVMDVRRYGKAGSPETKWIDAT
MAST3, O60307, sequence (O60307 945-1048): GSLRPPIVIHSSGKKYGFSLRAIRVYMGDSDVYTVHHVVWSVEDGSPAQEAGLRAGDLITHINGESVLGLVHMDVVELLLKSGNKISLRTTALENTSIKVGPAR
MAGI3_6, Q5TCQ9, sequence (Q5TCQ9 1014-1103): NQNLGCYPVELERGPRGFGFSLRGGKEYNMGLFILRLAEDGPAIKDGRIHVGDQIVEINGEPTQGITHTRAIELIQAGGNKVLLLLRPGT
LIMK1, P53667, sequence (P53667 155-268): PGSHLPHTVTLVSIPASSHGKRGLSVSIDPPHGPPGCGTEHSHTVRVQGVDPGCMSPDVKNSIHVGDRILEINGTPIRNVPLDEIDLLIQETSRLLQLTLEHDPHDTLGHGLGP
CARD14, Q9BXL6, sequence (Q9BXL6 558-663): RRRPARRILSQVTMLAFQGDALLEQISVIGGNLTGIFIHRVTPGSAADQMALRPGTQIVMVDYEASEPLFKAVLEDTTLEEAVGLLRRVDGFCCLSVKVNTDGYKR
MAGI1_4, Q96QZ7, sequence (Q96QZ7 other isoform, or with tags, fused parts or gaps): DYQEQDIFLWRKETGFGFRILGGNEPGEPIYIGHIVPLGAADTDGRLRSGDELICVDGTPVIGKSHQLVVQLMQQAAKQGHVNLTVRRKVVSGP
PREX1_1, Q8TCU6, sequence (Q8TCU6 608-718): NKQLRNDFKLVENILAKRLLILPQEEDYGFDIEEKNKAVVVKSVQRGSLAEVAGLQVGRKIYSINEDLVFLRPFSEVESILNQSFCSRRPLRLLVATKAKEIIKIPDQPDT
MAGI3_3, Q5TCQ9, sequence (Q5TCQ9 572-655): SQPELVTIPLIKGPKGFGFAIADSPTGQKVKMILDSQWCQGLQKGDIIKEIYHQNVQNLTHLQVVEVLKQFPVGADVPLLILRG
TJP1_1, Q07157, sequence (Q07157 18-120): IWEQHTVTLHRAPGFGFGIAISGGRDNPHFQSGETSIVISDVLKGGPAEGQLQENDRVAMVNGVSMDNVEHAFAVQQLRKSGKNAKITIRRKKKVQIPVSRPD
PDZRN4_2, Q6ZMN7, sequence (Q6ZMN7 389-498): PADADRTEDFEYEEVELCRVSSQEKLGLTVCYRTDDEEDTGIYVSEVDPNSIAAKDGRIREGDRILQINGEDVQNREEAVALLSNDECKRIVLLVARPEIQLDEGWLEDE
CNKSR3, Q6P9H4, sequence (Q6P9H4 203-303): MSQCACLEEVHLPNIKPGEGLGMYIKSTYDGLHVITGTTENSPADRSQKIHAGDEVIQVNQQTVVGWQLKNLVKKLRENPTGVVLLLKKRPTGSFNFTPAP

pKd [1]	pKd [2]	pKd [3]	pKd [4]	pKd [5]	pKd [6]	pKd [7]	pKd [8]	pKd [9]	pKd [10]	pKd [11]	pKd [12]	pKd [13]	pKd [14]	pKd [15]	pKd [16]	pKd [17]	pKd [18]	pKd [19]	pKd [20]	other results	Binder
below the threshold	below the threshold	4.48	below the threshold	below the threshold	below the threshold	below the threshold	below the threshold	4.78	below the threshold	below the threshold	below the threshold	below the threshold	below the threshold	below the threshold	below the threshold	below the threshold	below the threshold	below the threshold	below the threshold	pKd [21]: below the threshold; pKd [22]: below the threshold; pKd [23]: below the threshold; pKd [24]: below the threshold; pKd [25]: below the threshold; pKd [26]: below the threshold	SVWLRKETRV [CYSLTR2, Q9NS75]
below the threshold	below the threshold	below the threshold	below the threshold	below the threshold	4.14	4.6	below the threshold	below the threshold	4.33	below the threshold	below the threshold	below the threshold	below the threshold	4.08	4.27	4.46	below the threshold	below the threshold	below the threshold	pKd [21]: below the threshold; pKd [22]: 4.14; pKd [23]: below the threshold; pKd [24]: below the threshold; pKd [25]: below the threshold; pKd [26]: below the threshold	RSLEEEESQL [GRASP, Q7Z6J2]

— PMC9482650, “Quantitative fragmentomics allow affinity mapping of interactomes” (Nature Communications, 2022)
